The text below walks through data of US20260242735A1 (UNIVERSIT T BASEL, published 2026).

The labels stand for the following.
B1: Refmab #2 (antibody, V domains shown)
VH: QVQLVQSGAEVKKPGSSVKVSCKASGGTFSDYAISWVRQAPGQGLEWMGRIIPILGVADYAQKFQGRVTITADKSTRTAYMELSSLRSEDTAVYYCARNWADAFDIWGQGTMVTVSS
VL: DIQLTQSPSSLSASVGDRVTITCRASQGISSVLAWYQQKPGKAPKLLIYDASSLESGVPSRFSGSGSGTDFTLTISSLQPEDFATYYCQQFDSSITFGQGTKLEIK
notes: In the alanine scan antibodies were used as IgG or Fab
B2: Refmab #4 (antibody, V domains shown)
VH: QVQLVQSGAEVKKPGESVKVSCKASGYTFTNYGMNWVKQAPGQGLEWMGWINTYTGEPTYADKFQGRVTMTTDTSTSTAYMEIRNLGGDDTAVYYCARWSWSDGYYVYFDYWGQGTSVTVSS
VL: DIVMTQSPDSLTVSLGERTTINCKSSQSVLDSSTNKNSLAWYQQKPGQPPKLLLSWASTRESGIPDRFSGSGSGTDFTLTIDSPQPEDSATYYCQQSAHFPITFGQGTRLEIK
notes: as for B1
B3: Refmab #3 (antibody, V domains shown)
VH: QVQLVQSGAEVKKPGSSVKVSCKASGYTFTDYNMHWVRQAPGQGLEWIGYIYPYNGGTGYNQKFKSKATITADESTNTAYMELSSLRSEDTAVYYCARGRPAMDYWGQGTLVTVSS
VL: DIQMTQSPSSLSASVGDRVTITCRASESVDNYGISFMNWFQQKPGKAPKLLIYAASNQGSGVPSRFSGSGSGTDFTLTISSLQPDDFATYYCQQSKEVPWTFGQGTKVEIK
notes: as for B1
B4: Refmab #1 (antibody, V domains shown)
VH: EVQLVQSGAEVKKPGSSVKVSCKASGYTITDSNIHWVRQAPGQSLEWIGYIYPYNGGTDYNQKFKNRATLTVDNPTNTAYMELSSLRSEDTAFYYCVNGNPWLAYWGQGTLVTVSS
VL: DIQLTQSPSTLSASVGDRVTITCRASESLDNYGIRFLTWFQQKPGKAPKLLMYAASNQGSGVPSRFSGSGSGTEFTLTISSLQPDDFATYYCQQTKEVPWSFGQGTKVEVK
notes: In the alanine scan antibodies were used as IgG or Fab; also called hP67.6

human CD33 T185A, sequence (P20138 18-364 T185A limits assumed): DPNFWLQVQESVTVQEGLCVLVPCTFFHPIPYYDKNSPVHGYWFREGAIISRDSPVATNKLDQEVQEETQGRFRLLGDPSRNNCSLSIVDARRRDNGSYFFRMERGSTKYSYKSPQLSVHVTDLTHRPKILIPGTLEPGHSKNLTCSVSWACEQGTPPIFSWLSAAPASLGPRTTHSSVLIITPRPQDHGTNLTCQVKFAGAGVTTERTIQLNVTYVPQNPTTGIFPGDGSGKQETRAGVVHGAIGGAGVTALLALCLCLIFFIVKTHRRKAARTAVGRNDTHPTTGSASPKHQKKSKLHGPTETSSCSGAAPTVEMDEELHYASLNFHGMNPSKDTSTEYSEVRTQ
human CD33 G218A, sequence (P20138 18-364 G218A limits assumed): as the sequence (P20138 18-364 T185A limits assumed) above, with A168T, G201A counted along it
human CD33 Q213A, sequence (P20138 18-364 Q213A limits assumed): as the sequence (P20138 18-364 T185A limits assumed) above, with A168T, Q196A counted along it
human CD33 T211A, sequence (P20138 18-364 T211A limits assumed): as the sequence (P20138 18-364 T185A limits assumed) above, with A168T, T194A counted along it
human CD33 E170A, sequence (P20138 18-364 E170A limits assumed): as the sequence (P20138 18-364 T185A limits assumed) above, with E153A, A168T counted along it
human CD33 S186A, sequence (P20138 18-364 S186A limits assumed): as the sequence (P20138 18-364 T185A limits assumed) above, with A168T, S169A counted along it
human CD33 Q204A, sequence (P20138 18-364 Q204A limits assumed): as the sequence (P20138 18-364 T185A limits assumed) above, with A168T, Q187A counted along it
human CD33 P203A, sequence (P20138 18-364 P203A limits assumed): as the sequence (P20138 18-364 T185A limits assumed) above, with A168T, P186A counted along it
human CD33 D205A, sequence (P20138 18-364 D205A limits assumed): as the sequence (P20138 18-364 T185A limits assumed) above, with A168T, D188A counted along it
human CD33 L210A, sequence (P20138 18-364 L210A limits assumed): as the sequence (P20138 18-364 T185A limits assumed) above, with A168T, L193A counted along it
human CD33 P238A, sequence (P20138 18-364 P238A limits assumed): as the sequence (P20138 18-364 T185A limits assumed) above, with A168T, P221A counted along it

The target of one experiment is human CD33 T173A (human, UniProt P20138 18-364). Briefly: alanine scan, flow cytometry, HEK293-T. (In general: A flow cytometer gives signals particle by particle.)
human CD33 T173A, sequence (P20138 18-364 T173A limits assumed): as the sequence (P20138 18-364 T185A limits assumed) above, with T156A, A168T counted along it
On to B1, for which the “Mean % WT Binding” value turned out to be 134%.
On the same count and under the same terms, as for B2, the figure is 119%.
On the same count and under the same terms, the figure for B3 is 97%.
Same read-out and setting: as for B4, the figure is 106%.

The target of another experiment is human CD33 S181A (human, UniProt P20138 18-364). Briefly: alanine scan, flow cytometry, HEK293-T.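 Also: antibody binding to each alanine-substituted CD33 mutant expressed transiently in HEK293-T, read as fluorescence minus background, mean of duplicates, relative to wild-type CD33 set as 100%.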
human CD33 S181A, sequence (P20138 18-364 S181A limits assumed): as the sequence (P20138 18-364 T185A limits assumed) above, with S164A, A168T counted along it
Regarding B1, the “Mean % WT Binding” value was determined as 116%.
The same measure, in the same setting: as for B2, the figure is 114%.
B3: the “Mean % WT Binding” value was found to be 128%.
For B4, the “Mean % WT Binding” value turned out to be 85.5%.

Another experiment has as its target human CD33 T185A (human, UniProt P20138 18-364). As to the kind of experiment: alanine scan, flow cytometry, HEK293-T.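 Also: antibody binding to each alanine-substituted CD33 mutant expressed transiently in HEK293-T, read as fluorescence minus background, mean of duplicates, relative to wild-type CD33 set as 100%.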
For B1, the “Mean % WT Binding” value was found to be 118%.
On the same count and under the same terms, the figure for B2 is 98.9%; for B3 it is 105%; for B4 it is 92.3%.

The next experiment addresses human CD33 S186A (human, UniProt P20138 18-364). As to the kind of experiment: alanine scan, flow cytometry, HEK293-T.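 Also: antibody binding to each alanine-substituted CD33 mutant expressed transiently in HEK293-T, read as fluorescence minus background, mean of duplicates, relative to wild-type CD33 set as 100%.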
Turning to B1, the “Mean % WT Binding” value stood at 120%.
On the same count and under the same terms, the figure for B2 is 121%; for B3 it is 106%.
Regarding B4, the “Mean % WT Binding” value amounted to 92.5%.

The target in a further experiment is human CD33 I199A (human, UniProt P20138 18-364). Briefly: alanine scan, flow cytometry, HEK293-T.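 Also: antibody binding to each alanine-substituted CD33 mutant expressed transiently in HEK293-T, read as fluorescence minus background, mean of duplicates, relative to wild-type CD33 set as 100%.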
human CD33 I199A, sequence (P20138 18-364 I199A limits assumed): as the sequence (P20138 18-364 T185A limits assumed) above, with A168T, I182A counted along it
On to B1, for which the “Mean % WT Binding” value is 125%.
The same measure, in the same setting: as for B2, the figure is 114%; as for B3, 112%.
On the same count and under the same terms, as for B4, the figure is 98.5%.

The target in another experiment is human CD33 P201A (human, UniProt P20138 18-364). As to the kind of experiment: alanine scan, flow cytometry, HEK293-T.
human CD33 P201A, sequence (P20138 18-364 P201A limits assumed): as the sequence (P20138 18-364 T185A limits assumed) above, with A168T, P184A counted along it
As for B1, the “Mean % WT Binding” value was 110%.
Same read-out and setting: as for B2, the figure is 103%; as for B3, 90.9%.
Consider B4, for which the “Mean % WT Binding” value was 85.6%.

The next experiment has as its target human CD33 P203A (human, UniProt P20138 18-364). As to the kind of experiment: alanine scan, flow cytometry, HEK293-T.
Regarding B1, the “Mean % WT Binding” value came out at 109%.
Same read-out and setting: the figure for B2 is 112%; for B3 it is 105%; for B4 it is 103%.

A further experiment concerns the target human CD33 Q204A (human, UniProt P20138 18-364). As to the kind of experiment: alanine scan, flow cytometry, HEK293-T.
Consider B1, for which the “Mean % WT Binding” value is 112%.
On the same count and under the same terms, the figure for B2 is 99.8%.
The same measure, in the same setting: the figure for B3 is 126%; for B4 it is 93.7%.

A further experiment concerns the target human CD33 D205A (human, UniProt P20138 18-364). Briefly: alanine scan, flow cytometry, HEK293-T.
On to B1, for which the “Mean % WT Binding” value came to 2.8%.
Same read-out and setting: as for B2, the figure is 0.1%; as for B3, 8.1%; as for B4, 1.6%.

The target in a further experiment is human CD33 T208A (human, UniProt P20138 18-364). As to the kind of experiment: alanine scan, flow cytometry, HEK293-T.
human CD33 T208A, sequence (P20138 18-364 T208A limits assumed): as the sequence (P20138 18-364 T185A limits assumed) above, with A168T, T191A counted along it
In the case of B1, the “Mean % WT Binding” value came to 117%.
Turning to B2, the “Mean % WT Binding” value stood at 108%.
The same measure, in the same setting: as for B3, the figure is 83.6%; as for B4, 101%.

A further experiment deals with human CD33 N209A (human, UniProt P20138 18-364). Briefly: alanine scan, flow cytometry, HEK293-T.
human CD33 N209A, sequence (P20138 18-364 N209A limits assumed): as the sequence (P20138 18-364 T185A limits assumed) above, with A168T, N192A counted along it
B1: the “Mean % WT Binding” value worked out at 104%.
On the same count and under the same terms, as for B2, the figure is 88.1%; as for B3, 91.7%.
Same read-out and setting: the figure for B4 is 92.1%.

The next experiment concerns the target human CD33 L210A (human, UniProt P20138 18-364). Briefly: alanine scan, flow cytometry, HEK293-T.
As for B1, the “Mean % WT Binding” value was 98.2%.
For the molecule B2, the “Mean % WT Binding” value is 92.3%.
The same measure, in the same setting: the figure for B3 is 84%.
Still for that read-out and setting: the figure for B4 is 93%.

Another experiment has as its target human CD33 T211A (human, UniProt P20138 18-364). As to the kind of experiment: alanine scan, flow cytometry, HEK293-T.
B1: the “Mean % WT Binding” value amounted to 111%.
The same measure, in the same setting: the figure for B2 is 79.4%; for B3 it is 96.2%.
On the same count and under the same terms, the figure for B4 is 82.4%.

A further experiment addresses human CD33 Q213A (human, UniProt P20138 18-364). As to the kind of experiment: alanine scan, flow cytometry, HEK293-T.
In the case of B1, the “Mean % WT Binding” value amounted to 115%.
Same read-out and setting: as for B2, the figure is 103%.
Still for that read-out and setting: the figure for B3 is 135%.
Same read-out and setting: as for B4, the figure is 95.3%.

The next experiment has as its target human CD33 G218A (human, UniProt P20138 18-364). As to the kind of experiment: alanine scan, flow cytometry, HEK293-T.
Take B1: the “Mean % WT Binding” value amounted to 124%.
Still for that read-out and setting: as for B2, the figure is 102%; as for B3, 143%.
Still for that read-out and setting: as for B4, the figure is 79.2%.

In a further experiment the target is human CD33 A168S (human, UniProt P20138 18-364). Briefly: alanine scan, flow cytometry, HEK293-T.
human CD33 A168S, sequence (P20138 18-364 A168S limits assumed): as the sequence (P20138 18-364 T185A limits assumed) above, with A151S, A168T counted along it
Turning to B1, the “Mean % WT Binding” value worked out at 110%.
Turning to B2, the “Mean % WT Binding” value amounted to 99.9%.
Same read-out and setting: the figure for B3 is 99.2%.
On the same count and under the same terms, the figure for B4 is 88.4%.

The target in a further experiment is human CD33 L229A (human, UniProt P20138 18-364). As to the kind of experiment: alanine scan, flow cytometry, HEK293-T.
human CD33 L229A, sequence (P20138 18-364 L229A limits assumed): as the sequence (P20138 18-364 T185A limits assumed) above, with A168T, L212A counted along it
Take B1: the “Mean % WT Binding” value stood at 113%.
As to B2, the “Mean % WT Binding” value came out at 89.1%.
Still for that read-out and setting: as for B3, the figure is 150%.
With B4, the “Mean % WT Binding” value amounted to 93.1%.

The next experiment deals with human CD33 N230A (human, UniProt P20138 18-364). Briefly: alanine scan, flow cytometry, HEK293-T.
human CD33 N230A, sequence (P20138 18-364 N230A limits assumed): as the sequence (P20138 18-364 T185A limits assumed) above, with A168T, N213A counted along it
With B1, the “Mean % WT Binding” value amounted to 96.4%.
Same read-out and setting: as for B2, the figure is 63.5%; as for B3, 109%.
For the molecule B4, the “Mean % WT Binding” value turned out to be 83.6%.

The next experiment addresses human CD33 P238A (human, UniProt P20138 18-364). As to the kind of experiment: alanine scan, flow cytometry, HEK293-T.
In the case of B1, the “Mean % WT Binding” value was 119%.
The same measure, in the same setting: as for B2, the figure is 117%; as for B3, 122%.
On the same count and under the same terms, the figure for B4 is 101%.

A further experiment has as its target human CD33 E170A (human, UniProt P20138 18-364). Briefly: alanine scan, flow cytometry, HEK293-T.
Turning to B1, the “Mean % WT Binding” value was 123%.
On the same count and under the same terms, as for B2, the figure is 95.5%; as for B3, 148%; as for B4, 90.9%.

The target in a further experiment is human CD33 I242A (human, UniProt P20138 18-364). Briefly: alanine scan, flow cytometry, HEK293-T.
human CD33 I242A, sequence (P20138 18-364 I242A limits assumed): as the sequence (P20138 18-364 T185A limits assumed) above, with A168T, I225A counted along it
As for B1, the “Mean % WT Binding” value was determined as 98.6%.
Same read-out and setting: as for B2, the figure is 104%; as for B3, 128%.
On the same count and under the same terms, the figure for B4 is 77.9%.
